Reference: patent US20240150490A1 (MABPRO A S, published 2024)
Positions count from the first letter of the chain named.

B1: CA9hu-1_HC4LC4 (antibody, V domains shown)
VH: EVQLVESGGGLVQPGGSLRLSCAASGFTFTDYYMHWVRQAPGRGLEWVAFIRNKASGYTPQYSASVKGRFTISRDNAENSLYLQMNSLRAEDTAVYYCVRGGHAGSNYWYFDVWGKGTTVTVSS
VL: DIQMTQSPSSLSASVGDRVTINCHVSQNINVWLSWYQQKPGEAPKLLIYQASNLHTGVPSRFSGSGSGTGFTLTIRSLQPEDYATYYCQQGQSYPFTFGQGTKLEIK
notes: Humanized from murine VII/20; also called HC4LC4 (CA9hu-1)
B2: CA9hu-1_HC4LC2 (antibody, V domains shown)
VH: B1 VH
VL: B1 VL with S10T, N22T, E42N, G70E, R76G, E81D, Y83F, A84V, L104V
notes: Humanized from murine VII/20; also called HC4LC2 (CA9hu-1)
B3: CA9hu-1_HC3LC2 (antibody, V domains shown)
VH: QVQLVQSGGGLVQPGRSLRLSCTASGFTFTDYYMHWVRQAPGKGLEWVGFIRNKASGYTPQYSASVKGRFTISRDDSKTIAYLQMNSLKTEDTAVYYCVRGGHAGSNYWYFDVWGQGTLVTVSS
VL: B1 VL with S10T, N22T, E42N, G70E, R76G, E81D, Y83F, A84V, L104V
notes: Humanized from murine VII/20; also called HC3LC2 (CA9hu-1)
B4: CA9hu-1_HC3LC1 (antibody, V domains shown)
VH: B3 VH
VL: B1 VL with N22T, E42K, K45N, G70H, R76S, Y83I, Q100G, L104V
notes: Humanized from murine VII/20; also called HC3LC1 (CA9hu-1)
B5: CA9hu-1_HC4LC1 (antibody, V domains shown)
VH: B1 VH
VL: B1 VL with N22T, E42K, K45N, G70H, R76S, Y83I, Q100G, L104V
notes: Humanized from murine VII/20; also called HC4LC1 (CA9hu-1)
B6: CA9hu-1_HC5LC5 (antibody, V domains shown)
VH: B3 VH with Q1E, Q6E, R16G, T23A, T79N, I80S, A81L, L119M
VL: B1 VL with N22T, E42K, G70D, L73F, R76S, Y83I
notes: Humanized from murine VII/20; also called HC5LC5 (CA9hu-1)
B7: CA9hu-1 chimeric HC0LC0 (antibody, V domains shown)
VH: EVKLVESGGGLVQPGGSLRLSCATSGFTFTDYYMHWVRQPPGMALEWLAFIRNKASGYTPQYSASVKGRFTISRDVSQTILYLQMNTLRPEDSATYYCVRGGHAGSNYWYFDVWGAGTTVTVSS
VL: DIQMNQSPSSLSASLGDTITIACHVSQNINVWLSWYQQKPGNIPKLLIYQASNLHTGVPSRFTGSGSGTGFTLTISSLQPEDIATYYCQQGQSYPFTFGSGTKLEIK
notes: also called HC0LC0 (CA9hu-1); chimeric variant

Target: recombinant human CA IX (human, UniProt Q16790 38-414)
Test: SPR (Biacore 2000), antibody captured on CM5 chip, rh CA IX in flow, 25 C
Protocol: In order to determinate the antigen-binding affinity of humanized variants, measurements of affinity constant (KD) for antibodies binding to CA IX were performed by SPR using a Biacore 2000 (T200 in case of CA9hu-2) instrument (GE Healthcare, Piscataway, NJ USA). Each humanized antibody variant was captured on the CM5 sensor chip and recombinant human CA IX (rh CA IX; 42 kDa; R&D Systems, Inc., Minneapolis MN, USA) protein as an antigen was added to the buffer flowing over the chip. The setting details of quantitative interaction analysis between humanized antibodies and rh CA IX were as follows: flow rate 30 μl/min; analysis temperature 25° C.; analysis buffer (10mM HEPES pH 7.4, 150 mM NaCl, […], 0.05% Tween 20). Results from SPR analysis are expressed as the equilibrium dissociation constant (KD) (Table 7).

Q: Which Kd does the source give for B1 here?
A: 15.2 nM

Q: B2 was tested. Which Kd did it give?
A: 9.1 nM

Q: For B3, which Kd is on record?
A: 81 nM

Q: With B4 as the binder, how does the Kd read?
A: 91 nM

Q: How did the Kd turn out when B5 was run?
A: 15.2 nM

Q: B6 was tested. Which Kd did it give?
A: 64 nM

Q: B7 was tested. Which Kd did it give?
A: 22 nM

Target: CA IX expressed by cells (C-33a_CA IX transfectants; hypoxic BT-20, JIMT-1, 8-MG-BA and 42-MG-BA cells) (human, UniProt Q16790 38-459)
Test: cell-based or functional assay

Q: For B1, which “ADCC reporter activity, induction over no Ab, BT-20 cells” value is on record?
A: > 25 fold
